# Measured values reported in the DeepSol protein solubility set.
# Assay: soluble on expression in E. coli; label from the status in PepcDB or PDB records
row,Sequence,soluble on expression in E. coli
1,MERAEILGVGTELLYGETLDTNTAEIARSLKPYALKVERTLRVADEVAPLAREVEEAFARARLVVLSGGLGPTPDDVTREAVALALGEPLELDEAVLGEIEAFFRARGRAMPEANRKQAMRIPSATWLKNPRGTAPGWWVRKGGKDLVLLPGPPPEWRPMWQEVLPRLGLPRRPYAERVLKTWGIGESEIVERLGPLFVRGEEVEVGTYPKVHGVEVVVRGREDRVAELAERIKKKLLKEVWGEGEMTLAEAVKRRMEREGATLSTMESLTGGLLGAEITRVPGASRFYLGGVVSYSVGAKARFGVPQDLLSRTVSAETARAMAEAARSLFGSTYALATTGVAGPDPLEGEPPGTVYVALAGPTGAEVRRYRFPGDRETVRLRSVYAALALLVT,soluble
2,IRSFATHAQLPISIVNREDDAFLNPNFRFIDHSIIGKNVPVADQSFRVGCSCASDEECMYSTCQCLDEMAPDSDEEADPYTRKKRFAYYSQGAKKGLLRDRVLQSQEPIYECHQGCACSKDCPNRVVERGRTVPLQIFRTKDRGWGVKCPVNIKRGQFVDRYLGEIITSEEADRRRAESTIARRKDVYLFALDKFSDPDSLDPLLAGQPLEVDGEYMSGPTRFINHSCDPNMAIFARVGDHADKHIHDLALFAIKDIPKGTELTFDYVNGLTGLESDAHDPSKISEMTKCLCGTAKCRGYLW,soluble
3,MSLFRLVFVMDIFNRNVVLAKGGIRENYRPVSDSSAVCRTSDPLEILEILRPKEVYIADLNVLQGKGPLDMNAEIIREVSFKADTMLDSGVSSSKDVDRALSIAGTAVIGTETGTLEVIKDSISRNPGRISVSIDIKHGKLLKQDPKIPEDPFEIVKILNRLPLKDLIFLDLDRVGTASGFDPEFLRKLAESSAHDVLLAGGVRGMKDLFALDSLGIKGALVATAIHSGEVSPEVMTLGLKKEGHHHHHH,soluble
4,MAHHHHHHMVGLRTRNVIDPIHGGVGRVIGGKGVSIDRNDGSIISDNEGENDRNGGDIPKAEGEEGRDAQDKGNAKVVMPIDEANQSNIANICSCDFTERLNFIPQEKTKVVCNLNPHHGEEVKIWVNKEYEVKCFQNSRVYCPSKDNIVNNTDITTYSPKLKYNISDVVHRDREVKEYHLQIDKDASDILLFCSIKPKQVSELLEGEVKINLKREISEEYSIPDEHGIHACNFSKGNLDISPSAGFYYKNDRSVSCIYLVIPNKLFLIKLPKLDIVTNQLLPSLVNCLSEHSFINFNLKHVEEGDESISLHLSFGDFKRTFNLSCAFDLSEYVIEPCLLGKKGIVTFYFNA,not soluble
5,SGAVTDDEVIRKRLLIDGDGAGDDRRINLLVKSFIKWCNSGSQEEGYSQYQRMLSTLSQCEFSMGKTLLVYDMNLREMENYEKIYKEIECSIAGAHEKIAECKKQILQAKRIRKNRQEYDALAKVIQHHPDRHETLKELEALGKELEHLSHIKESVEDKLELRRKQFHVLLSTIHELQQTLENDEKLSEVEEAQEASMETDPKP,soluble
6,MTAMDHQFPSWIVVNESTSISREQLNYLLETYNVFYENQKNLHILYGQTEDGQLIVEGMLDIFWGVKRPIQLKIQDEKQISSFDLLNTPETFSSKGRMTRWGEFDDLYRISELDRTHVLASEARHSPEDYLSYHSTLTPYADEEPESPLLYRTMSEAESPLLYRTMSEAALVRKRMRAPEMYRKDRMGVLSNHRASINGHVYDHETSIFTPTFGSETKVRANSIMRTEEVIKQLLQKFKIENSPRDFALYIIFGTGEQRKLKKTDVPLLQRLLQGPSKSNARIFLMDKDAEEISRDVAPYINFHFSFLESILQRLDEEEKMEIERIMAKFNTERAFILKCLQSKQAAKTETTV,soluble
7,MSNPTKISILGRESIIADFGLWRNYVAKDLISDCSSTTYVLVTDTNIGSIYTPSFEEAFRKRAAEITPSPRLLIYNRPPGEVSKSRQTKADIEDWMLSQNPPCGRDTVVIALGGGVIGDLTGFVASTYMRGVRYVQVPTTLLAMVDSSIGGKTAIDTPLGKNLIGAIWQPTKIYIDLEFLETLPVREFINGMAEVIKTAAISSEEEFTALEENAETILKAVRREVTPGEHRFEGTEEILKARILASARHKAYVVSADEREGGLRNLLNWGHSIGHAIEAILTPQILHGECVAIGMVKEAELARHLGILKGVAVSRIVKCLAAYGLPTSLKDARIRKLTAGKHCSVDQLMFNMALDKKNDGPKKKIVLLSAIGTPYETRASVVANEDIRVVLAP,soluble
8,SNYLDQMEEYDKVEEISRKHKHNCFCIQEVVSGLRQPVGALHSGDGSQRLFILEKEGYVKILTPEGEIFKEPYLDIHKLVQSGIKGGDERGLLSLAFHPNYKKNGKLYVSYTTNQERWAIGPHDHILRVVEYTVSRKNPHQVDLRTARVFLEVAELHRKHLGGQLLFGPDGFLYIILGDGMITLDDMEEMDGLSDFTGSVLRLDVDTDMCNVPYSIPRSNPHFNSTNQPPEVFAHGLHDPGRCAVDRHPTDININLTILCSDSNGKNRSSARILQIIKGKDYESEPSLLEFKPFSNGPLVGGFVYRGCQSERLYGSYVFGDRNGNFLTLQQSPVTKQWQEKPLCLGTSGSCRGYFSGHILGFGEDELGEVYILSSSKSMTQTHNGKLYKIVDPKRPLMPEECRATVQPAQTLTSECSRLCRNGYCTPTGKCCCSPGWEGDFCRTAKCEPACRHGGVCVRPNKCLCKKGYLGPQCEHHHHHH,soluble
9,MAHHHHHHMPAVKWSSPVVRNELMSLTRLPAEMQRAAAAAVAAHKNAYSPYSNFSVGAALLHDDGSVTAGCNYENCTLQSCCAERCAIVRANVEGHRRANAVAVYGRSYGAATPTNPPPVDALCPPCGLCRQLLVEVADLSQNFEEFMVVLVALDAQRAKVVRLADLVPAKFGPADIGMDVTQLGCHPSA,not soluble
10,MYQSIHVNKGQGGWGTGLDLTPSEPRTKVVSITGGGIHPVALKIAELSGAEAVDGFKNSIPEEEMMCVVIDCGGTARIGVYPMKRIPTVDILPSSPSGPLAKHITEDIFVSGVKPEDIMVTSSEADPGKPFDREKFKEDYAKIKEDQQEASDLKEGYLVKFSRGIGKAMGVFYQAGRDSVDMLIKN,not soluble
11,MGSDKIHHHHHHMSVEQTYSWLRKAGSIDDLAHYIIPLFSGAEKKNWKGILGHLQHHGMFKNIKEGIQTVSKLKEKGFYGHIQKEEQYLKNKWQGPDVPIVTLPVDERNRRIRLEFGSKSGLAFQDKMFLFLSSDLDFGSVSALMTHEYHHVCRLGHLTKEEKDVTLLDTIIMEGLAEYAVYERFGRSQTAEWTTWYTPEQLQALYEKKIAPHRDIKRDNRLFPQLLFGKGYQPKMLGYAVGFNIVKKYLTASKASTADGLSIPAETFLDAML,not soluble
12,MHTPVTIIGAGLGGLTLARVLHVHAIPVTVYEADSSPSARAQGGLLDIHDYNGQLAVEAAGLTDEFRAIVLEGRQALRVLDPDGTVRLDRADDGTGGRPEVQRGDLRQILLDSLPAGTVRWGHKVSRARPLGDGRHEVTFADGGTVVTRLLVGADGAWSRVRPLLSSATPEYVGKSVVETYLFDAGTRHPVAAKTVGGGMLIAPAPGKEIFAHREKDDTLHAYVGLSRPLDWFAGIDFTDGAAATARIAREFDGWATELTALITDTDVAPALRALHALPAGHRWERVPGVTLLGDAAHLAAPNGEGANLAMLDGAELGTALAAHPGDVEAALAEYERAMFPRSAEAAGDDMIGMDSPDNTAQGLIDLITENGGLEHHHHHH,soluble
13,METKCELNNTKKVANAFGLNEEDTNLLINAVDLDIKNNMQEISSELQQSEQSKQKQLGTTLQNLAKQNRIIK,not soluble
14,MAHHHHHHMQQSLKNQEHIWAVLQKMRMEMNECFAEHERMLRQAHGQLKERLDKIESAFVARNGGVGQLVGNSSSSLGHLDHATPVYTRFVSDKKGSPAGMRVTMLSTPPNERMQLMPPDSRGARSDVLPQPVDPTDWVALAAPSRQEATPAVSPHNRWTNDDSIHAEKTPSVDATCFEALNNLMNDDDFQHSTLESVIPSYTQDDDSKQLQSQPNLGTYTKKNDIIHMGAPGSSQTQHFTKSLKVTYMDGRPQAVPIPDGPPDEPDKLGIDVNAQCKVLVEFKRKRVLQFESKEYVPPGSYVMVGGDRGEDLGLVTYTWCETTKSLKGELGEFGNGSNKTVVLCVGLTGSTLTRSIGLGAGTVLRLADDSDVKQLHTVQVELERRAIDVCSQRVLERGLPMTIVDAEYQFDKKKLTFFYEAQQRMDFRELVRDLYKSFRARIWMELVEN,not soluble
15,MGTLIMENETNLSEVELRKNLIANINDCKTLLQLGEIYYSSGRYYLAANYLSYVMKMTNDAALYEKSNQLLFLAERAIQINNNDKMFSNFEFLDTLIMELLNCLKNHYYYNIDIELFELMHVRPSVDSIVVNTQNEKEEIVKHLQGLEELYFNLNDSFSKELLIKLLTFRLLGNHKVKMPLNTIDYWKQRKSIPNLIHSSETLQTNYHNWTLQLFDLTPLKYNLRLFYVPMGISATFLDKQYEYNKISPVIKVKEGDVVIDAGGCFGDTALYFAHEVGETGHVYTIEFIPSNLEIMSKNINLNEKLQNNITIVKHPLWNVSNTSLYYKDQGAASFVTFSEESGVTDKVSTITIDNLVVEHKLHKLDFIKMDVEGAEMNALKGAIHSITTFRPTLAIAIYHQISDFVNVMRFINDLNLGYQFYLGHYTVNAQETILFAVAREKMEVSDENEE,soluble
16,MGSDKIHHHHHHMEKNYYLTKTEQRIFNVIKHAKIITVREVAELFPELSRNMICKALSSLEKKGYLYRIKNGLYLIQQAPTKGSIIIEDPYRIALAMFSGYIAFSSALRLYNLIEYEPFTVFVATPRKSKKVEIDNYIIQAVALGEKATGITLYNGVYTSTLAKTFFDCFYKPQYCGGYETITKALYEAESIDWKEFLDYFKRFASPSLFQRTGYILELMNKELNFKIPKEVLEFFRSKVETKTKLVPTSPSRGKFIKEWKLLDNLGKDKILGWAYGY,not soluble
17,MGSDKIHHHHHHMRGCFSVTGVEDVCERLGVPCVPLDDPVEVSGEVFQKIKISRKVLEADKVVNLPKLKTHSQMVMTLGVKNTFGCVVGLEKSSWHMRAKNYDDFANLLIDIHRIVSPVLTILDGVEGMEGNGPTNGKKKHFGLVAVSKNAFALDDAVCKALGIDHVVYTVQHARKRRVVPDYEIVGTFHASIQLPSTVSTLDRLSRTFSRFFVKYPKIDTRKCVKCRLCEERCPASAIDISSQRIDYQKCIRCYVCHEVCPQDAIKLVRRLV,not soluble
18,GPLGSPQMAQGTLIRVTPEQPTHAVCVLGTLTQLDICSSAPEDCTSFSINASPGVVVDIAHSPPAKKKSTGSSTWPLDPGVEVTLTMKAASGSTGDQKVQISYYGPKTPPVKALLYLTAVEISLCADITRTGKVKPTRAVKDQRTWTWGPCGQGAILLVNCDRDNLESSAMDCEDDEVLDSEDLQDMSLMTLSTKTPKDFFTNHTLVLHVARSEMDKVRVFQATRGKLSSKCSVVLGPKWPSHYLMVPGGKHNMDFYVEALAFPDTDFPGLITLTISLLDTSNLELPEAVVFQDSVVFRVAPWIMTPNTQPPQEVYACSIFENEDFLKSVTTLAMKAKCKLTICPEEENMDDQWMQDEMEIGYIQAPHKTLPVVFDSPRNRGLKEFPIKRVMGPDFGYVTRGPQTGGISGLDSFGNLEVSPPVTVRGKEYPLGRILFGDSCYPSNDSRQMHQALQDFLSAQQVQAPVKLYSDWLSVGHVDEFLSFVPAPDRKGFRLLLASPRSCYKLFQEQQNEGHGEALLFEGIKKKKQQKIKNILSNKTLREHNSFVERCIDWNRELLKRELGLAESDIIDIPQLFKLKEFSKAEAFFPNMVNMLVLGKHLGIPKPFGPVINGRCCLEEKVCSLLEPLGLQCTFINDFFTYHIRHGEVHAGTNVRRKPFSFKWWNMVP,soluble
19,MDMELTYIYHSGFALSGDGFTVIMDYYRDSEDGQAQADLNRLMDGTFSNQEAGMPEGTVHSELLRRPGKLYVLASHFHPDHFNKEVLQWREQRPDIIYIFSKDILRHRRAQKEDAVWLKKGEEYKDETLSVRAFGSTDVGVSFLLQTGGKKIFHAGDLNNWHWMDESTEAEWKGAEKNFLHELDDLYAYTPEVDVAMFPVDPRLGKEYMRGAGQFVTKIKTHIFVPMHFTPEYAKANAFRDFAEAHGVRFVSLTHRGQKIEIE,soluble
